This series concerns the molecule itself. Briefly: SEC-MALS; static light scattering (miniDawn TREOS, Optilab T-rEX refractometer) after Superdex 200 10/300 GL; molar mass by ASTRA 6.

What is called stoichiometry N is the number of molecules, sites or subunits per partner or assembly.

B1: Aspergillus fumigatus HapX(24–158) (domain or fragment, UniProt Q4WER3 24-158, looked up)
chain: SPSPGPGTPGSITSKEWVIPPRPKPGRKPATDTPPTKRKAQNRAAQRAFRERRAARVNELEEQIKKIEDEHEIHIAAFKEQITNLSREVEQCRSEMTWWRDRCHALEKEVSVERSAKEAIVKEFRSSLSDREAVR
notes: Cloned in pMAL-c2X with an extended N-terminus including a TEV site; Theoretical mass of the dimer 31.36 kDa; also called peptide corresponding to residues 24–158 of HapX
As to B1, the “stoichiometry N” value came out at 2.

These data come from publication PMC4232046, “The Janus transcription factor HapX controls fungal adaptation to both iron starvation and iron excess” (The EMBO Journal, 2014).
